From ChEMBL document CHEMBL2029331, “Red fluorescent scaffold for highly sensitive protease activity probes” (Bioorg Med Chem Lett, 2012)

Tests used:
[1] = substrate: Cc1ccccc1C1=C2C=CC(=N)C=C2[Si](C)(C)c2cc(NC(=O)[C@H](CC(=O)O)NC(=O)[C@@H](NC(=O)[C@H](CCC(=O)O)NC(=O)[C@H](CC(=O)O)NC(=O)OCc3ccccc3)C(C)C)ccc21; test: Ratio of Kcat to Km for caspase3 by FRET assay
[2] = substrate: Cc1ccccc1C1=C2C=CC(=N)C=C2[Si](C)(C)c2cc(NC(=O)[C@H](CC(=O)O)NC(=O)[C@@H](NC(=O)[C@H](CCC(=O)O)NC(=O)[C@H](CC(=O)O)NC(=O)OCc3ccccc3)C(C)C)ccc21; test: Activity of caspase3 after 10 hrs by FRET assay

B1: Caspase-3 (Homo sapiens), P42574 (protein)
chain: MENTENSVDSKSIKNLEPKIIHGSESMDSGISLDNSYKMDYPEMGLCIIINNKNFHKSTGMTSRSGTDVDAANLRETFRNLKYEVRNKNDLTREEIVELMRDVSKEDHSKRSSFVCVLLSHGEEGIIFGTNGPVDLKKITNFFRGDRCRSLTGKPKLFIIQACRGTELDCGIETDSGVDDDMACHKIPVEADFLYAYSTAPGYYSWRNSKDGSWFIQSLCAMLKQYADKLEFMHILTRVNRKVATEFESFSFDATFHAKKQIPCIVSMLTKELYFYH
kcat/Km [1]: 3.1 ×10⁶ /M/s | Km [2]: 1.2 µM | Vmax [2]: 6.8 ×10⁻⁸ M/s
